Test results reported in US20250136938A1.

Biological target: KRAS^G12V-reactive TCR (Pt. 4148)
Experiment: tetramer staining, flow cytometry on 41BB-enriched CD8 memory T cells of Pt. 4148

HLA-A*11:01-KRAS^G12V 9-mer tetramer (from UniProt P01116 8-16; P61769 21-119) (peptide-MHC)
percent of memory CD8 cells in the culture bound by tetramer: 15.9%
